Common to all, as to test: cell_activity; PAM SEQ ID 116
What all share (details): tags: N-terminal SV40 NLS and 3xFLAG, C-terminal nucleoplasmin NLS

The target in series [1] is T1, APG01868 (Enterococcus sp.).
T1 chain: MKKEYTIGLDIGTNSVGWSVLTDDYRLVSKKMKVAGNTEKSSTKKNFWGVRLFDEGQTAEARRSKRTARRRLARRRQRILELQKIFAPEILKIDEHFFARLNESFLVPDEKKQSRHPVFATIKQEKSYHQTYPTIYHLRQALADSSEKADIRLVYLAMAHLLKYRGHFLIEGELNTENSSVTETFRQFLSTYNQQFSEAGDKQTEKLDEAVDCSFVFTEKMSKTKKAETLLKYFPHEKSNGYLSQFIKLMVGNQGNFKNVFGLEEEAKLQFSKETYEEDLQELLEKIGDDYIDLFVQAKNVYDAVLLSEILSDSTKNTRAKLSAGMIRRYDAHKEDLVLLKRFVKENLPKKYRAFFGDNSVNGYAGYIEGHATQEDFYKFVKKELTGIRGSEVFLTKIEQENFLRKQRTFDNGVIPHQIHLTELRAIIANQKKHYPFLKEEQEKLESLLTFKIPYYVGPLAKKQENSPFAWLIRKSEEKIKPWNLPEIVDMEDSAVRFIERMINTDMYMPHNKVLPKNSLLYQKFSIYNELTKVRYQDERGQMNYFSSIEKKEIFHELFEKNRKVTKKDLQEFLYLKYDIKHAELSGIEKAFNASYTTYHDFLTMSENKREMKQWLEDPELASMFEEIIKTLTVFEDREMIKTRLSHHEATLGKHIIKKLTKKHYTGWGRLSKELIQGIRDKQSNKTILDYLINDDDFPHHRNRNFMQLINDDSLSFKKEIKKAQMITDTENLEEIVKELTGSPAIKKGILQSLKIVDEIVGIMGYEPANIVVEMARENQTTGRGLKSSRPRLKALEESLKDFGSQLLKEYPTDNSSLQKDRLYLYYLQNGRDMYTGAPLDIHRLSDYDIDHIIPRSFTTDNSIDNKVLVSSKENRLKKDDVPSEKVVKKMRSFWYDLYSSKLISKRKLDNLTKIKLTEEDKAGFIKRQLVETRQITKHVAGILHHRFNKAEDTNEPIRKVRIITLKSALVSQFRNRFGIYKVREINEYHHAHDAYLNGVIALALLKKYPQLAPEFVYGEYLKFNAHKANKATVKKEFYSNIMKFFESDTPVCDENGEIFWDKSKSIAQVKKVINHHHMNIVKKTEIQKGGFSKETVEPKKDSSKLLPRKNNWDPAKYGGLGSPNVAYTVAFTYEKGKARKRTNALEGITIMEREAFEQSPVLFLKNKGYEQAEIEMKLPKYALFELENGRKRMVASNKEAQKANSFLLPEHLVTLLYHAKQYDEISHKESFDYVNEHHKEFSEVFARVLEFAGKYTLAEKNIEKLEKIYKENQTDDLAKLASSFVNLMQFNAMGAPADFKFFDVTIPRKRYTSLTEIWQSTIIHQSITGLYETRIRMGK

For series [2], the target named is T2, APG02998 (Enterococcus sp.).
T2 chain: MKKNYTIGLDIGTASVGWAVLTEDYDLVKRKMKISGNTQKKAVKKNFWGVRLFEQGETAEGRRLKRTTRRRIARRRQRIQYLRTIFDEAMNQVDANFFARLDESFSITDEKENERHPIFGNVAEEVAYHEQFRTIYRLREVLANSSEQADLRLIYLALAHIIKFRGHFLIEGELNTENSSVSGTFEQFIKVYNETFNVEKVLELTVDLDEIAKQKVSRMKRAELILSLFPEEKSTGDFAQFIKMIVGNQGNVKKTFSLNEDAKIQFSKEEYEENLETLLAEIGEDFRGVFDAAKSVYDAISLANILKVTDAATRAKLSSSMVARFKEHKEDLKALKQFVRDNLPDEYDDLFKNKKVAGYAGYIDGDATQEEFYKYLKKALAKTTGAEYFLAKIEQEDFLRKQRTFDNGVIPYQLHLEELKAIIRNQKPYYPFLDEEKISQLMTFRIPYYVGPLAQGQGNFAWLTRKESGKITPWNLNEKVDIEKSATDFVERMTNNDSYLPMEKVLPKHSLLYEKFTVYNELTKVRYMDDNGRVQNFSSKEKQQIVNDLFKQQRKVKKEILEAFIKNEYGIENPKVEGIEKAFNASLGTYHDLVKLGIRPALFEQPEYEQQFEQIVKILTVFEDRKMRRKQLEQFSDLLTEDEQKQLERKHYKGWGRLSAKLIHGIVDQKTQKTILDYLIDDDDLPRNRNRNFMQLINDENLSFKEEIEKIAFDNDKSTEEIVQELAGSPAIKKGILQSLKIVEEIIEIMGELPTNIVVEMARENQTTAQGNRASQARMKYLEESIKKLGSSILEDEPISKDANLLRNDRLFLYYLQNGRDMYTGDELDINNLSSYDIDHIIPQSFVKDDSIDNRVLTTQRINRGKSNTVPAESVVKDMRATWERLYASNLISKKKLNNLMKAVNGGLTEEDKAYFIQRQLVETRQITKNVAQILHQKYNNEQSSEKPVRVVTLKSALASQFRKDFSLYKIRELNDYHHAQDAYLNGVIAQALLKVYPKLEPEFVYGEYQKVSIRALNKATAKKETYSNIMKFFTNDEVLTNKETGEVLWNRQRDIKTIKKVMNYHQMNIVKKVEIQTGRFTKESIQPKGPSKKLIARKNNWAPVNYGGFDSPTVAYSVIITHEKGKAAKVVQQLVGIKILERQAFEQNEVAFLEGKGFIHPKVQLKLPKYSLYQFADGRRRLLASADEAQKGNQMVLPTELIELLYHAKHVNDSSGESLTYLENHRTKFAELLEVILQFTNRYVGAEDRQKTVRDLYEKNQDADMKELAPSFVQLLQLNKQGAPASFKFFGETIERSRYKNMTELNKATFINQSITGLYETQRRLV

For series [3], the target named is T3, APG07991 (Enterococcus sp.).
T3 chain: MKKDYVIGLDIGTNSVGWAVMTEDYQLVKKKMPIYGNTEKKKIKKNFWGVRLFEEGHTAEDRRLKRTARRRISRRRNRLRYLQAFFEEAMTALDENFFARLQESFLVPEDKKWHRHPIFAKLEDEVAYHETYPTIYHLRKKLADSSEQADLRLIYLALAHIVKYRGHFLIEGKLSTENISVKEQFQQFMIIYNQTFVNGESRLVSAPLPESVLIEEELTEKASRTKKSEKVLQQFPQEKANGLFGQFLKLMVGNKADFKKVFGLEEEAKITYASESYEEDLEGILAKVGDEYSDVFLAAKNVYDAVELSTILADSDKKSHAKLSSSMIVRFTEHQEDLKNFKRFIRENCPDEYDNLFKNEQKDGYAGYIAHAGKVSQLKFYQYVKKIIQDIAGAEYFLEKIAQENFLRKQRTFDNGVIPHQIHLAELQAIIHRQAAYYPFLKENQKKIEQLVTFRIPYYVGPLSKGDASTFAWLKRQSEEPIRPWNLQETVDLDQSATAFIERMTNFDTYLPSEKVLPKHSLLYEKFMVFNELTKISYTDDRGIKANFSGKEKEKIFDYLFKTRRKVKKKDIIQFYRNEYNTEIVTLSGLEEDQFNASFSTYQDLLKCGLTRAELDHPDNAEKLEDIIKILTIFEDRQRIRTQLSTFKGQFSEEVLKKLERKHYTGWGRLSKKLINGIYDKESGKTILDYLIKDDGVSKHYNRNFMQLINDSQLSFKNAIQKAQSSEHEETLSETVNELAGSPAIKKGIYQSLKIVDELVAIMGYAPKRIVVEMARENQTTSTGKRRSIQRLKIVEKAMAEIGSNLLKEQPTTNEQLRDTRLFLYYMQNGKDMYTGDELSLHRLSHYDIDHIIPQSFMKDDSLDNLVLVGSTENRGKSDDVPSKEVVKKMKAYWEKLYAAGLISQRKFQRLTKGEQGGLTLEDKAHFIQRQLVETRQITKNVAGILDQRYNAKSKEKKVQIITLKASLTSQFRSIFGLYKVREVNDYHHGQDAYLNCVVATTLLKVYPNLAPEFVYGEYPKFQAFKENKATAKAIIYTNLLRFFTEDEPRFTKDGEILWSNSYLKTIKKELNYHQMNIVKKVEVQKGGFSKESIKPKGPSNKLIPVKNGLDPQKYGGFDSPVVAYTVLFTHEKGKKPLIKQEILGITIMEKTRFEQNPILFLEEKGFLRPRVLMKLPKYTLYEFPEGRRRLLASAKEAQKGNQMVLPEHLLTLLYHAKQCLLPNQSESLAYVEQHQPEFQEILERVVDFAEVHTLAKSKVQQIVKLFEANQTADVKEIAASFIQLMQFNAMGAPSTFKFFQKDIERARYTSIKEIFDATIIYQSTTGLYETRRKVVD

B1: SGN001317 ; RelA target SGN001317 (ssRNA ; dsDNA)
RNA: ACAGUGCGCAUCUCCCUGGUCACCAGUUUUAGAGCUAUGCAAAGGCAUAGCAAGUUAAAAUAAGGCUUUGUCCGUCAUCAGCUUUUUUAAAGCAGCGCUGUUCUCGGCGCUUUU
DNA 1: ACAGTGCGCATCTCCCTGGTCACCA
DNA 2: TGGTGACCAGGGAGATGCGCACTGT
Regarding B1, in series [1], the activity was 19.4 % editing.

B2: SGN001346 ; TRA target SGN001346 (ssRNA ; dsDNA)
RNA: UCUGUGGGACAAGAGGAUCAGUUUUAGAGCUAUGCAAAGGCAUAGCAAGUUAAAAUAAGGCUUAGUCCGUAAACAAACUUUGGCACUGUAUUCGGUGCUUUUUUU
DNA 1: TCTGTGGGACAAGAGGATCA
DNA 2: TGATCCTCTTGTCCCACAGA
Turning to B2, the activity in series [2] worked out at 5.87 % editing.

B3: SGN001320 ; RelA target SGN001320 (ssRNA ; dsDNA)
RNA: ACAGUGCGCAUCUCCCUGGUCACCAGUUUUAGAGCUAUGCAAAGGCAUAGCAAGUUAAAAUAAGGCUUAGUCCGUAAACAAACUUUGGCACUGUAUUCGGUGCUUUUUUU
DNA 1: ACAGTGCGCATCTCCCTGGTCACCA
DNA 2: TGGTGACCAGGGAGATGCGCACTGT
For the molecule B3, in series [2], the activity stood at 3.48 % editing.

B4: SGN001343 ; TRA target SGN001343 (ssRNA ; dsDNA)
RNA: UCUGUGGGACAAGAGGAUCAGUUUUAGAGCUAUGCAAAGGCAUAGCAAGUUAAAAUAAGGCUUUGUCCGUCAUCAGCUUUUUUAAAGCAGCGCUGUUCUCGGCGCUUUU
DNA 1: TCTGTGGGACAAGAGGATCA
DNA 2: TGATCCTCTTGTCCCACAGA
With B4, the activity in series [1] turned out to be 41.4 % editing.

B5: SGN001357 ; HAO1 target SGN001357 (ssRNA ; dsDNA)
RNA: CAUUGAUACAAAUUAGCCGGGUUUUAGAGUCAUGUUGAAAGCAACAUAGCAAGUUAAAAUAAGGUUUUAACCGUAAUCAACUGUAAAGUGGCGCUGUUUCGGCGCUUUU
DNA 1: CATTGATACAAATTAGCCGG
DNA 2: CCGGCTAATTTGTATCAATG
The molecule B5 displayed an activity in series [3] of 13.3 % editing.

The record behind these values is patent US20260258452, “RNA-GUIDED NUCLEASES AND ACTIVE FRAGMENTS AND VARIANTS THEREOF AND METHODS OF USE” (Life Edit Therapeutics, Inc., published 2026).
